# Reference: patent US20080089862A1, “PROTEASE INHIBITORS AND METHOD OF SCREENING THEREOF” (priority 2005, published 2008)
# B1: scFv 171: NS3-inhibiting single-chain antibody, SEQ ID NO:6; MBP fusion SEQ ID NO:20 (protein)
# scFv: EVQLQQSGAELVRSGASVKLSCTASGFNIKDYYMHWVKQRPEQGLEWIGWIDPENGDTEYAPKFQGKATMTADTSSNTAYLQLSSLTSEDTAVYYCNAWGGSSDYYAMDYWGQGTSVTVSSGGGGSGGGGSGGGGSDVVMTQTPLSLPVSLGDQASISCRSSQSLVHSNGNTYLHWYLQKPGQSPKLLIYKVSNRFSGVPDRFSGSGSGTDFTLKISRVEAEDLGVYYCFQGSHVPWTFGGGTKLEIKR
# modifications: scFv inhibitor
# B2: scFv 162: NS3-inhibiting single-chain antibody, SEQ ID NO:5; MBP fusion SEQ ID NO:19 (protein)
# scFv: EVQLQQSGAELVRSGASVKLSCTASGFNIKDYYMHWVKQRPEQGLEWIGWIDPANGNTKYDPKFQGKATITADTSSNTAYLQLSSLTSEDTAVYYCARWDWYFDVWGAGTTVTVSSGGGGSGGGGSGGGGSSVLMTQTPLSLPVSLGDQASISCRSSQSIVHSNGNTYLEWYLQKPGQSPKLLIYKVSNRFSGVPDRFSGSGSGTDFTLKISRVEAEDLGVYYCFQGSHVPWTFGGGTKLELKR
# modifications: scFv inhibitor
# B3: scFv 1: NS3-inhibiting single-chain antibody, SEQ ID NO:1; MBP fusion SEQ ID NO:15 (protein)
# scFv: EVQLQQSGPELVKPGASVKMSCKASGYTFTDYYIKWVKQSHGKSLEWIGVINPGSGGTNYNEKFKGKATLTADKSSSTAYMQLSSLTSENSAVYFCARRAGTGYYFDYWGQGTTVTVSSGGGGSGGGGSGGGGSDVLMTQTPLSLPVSLGDQASISCRSSQSIVHSNGNTYLEWYLQKPGQSPKLLIYKVSNRFSGVPDRFSGSGSGTDFTLKISRVEAEDLGVYYCFQGSHVPLTFGAGTKLEIKR
# modifications: scFv inhibitor
# B4: scFv 10: NS3-inhibiting single-chain antibody, SEQ ID NO:11; MBP fusion SEQ ID NO:25 (protein)
# scFv: QVQLQQSGAELMKPGASVKISCKATGYTFSNYWIEWVKQRPGHGLEWIGGILPGSGSTNYNEKFKGKATFTADTSSNTAYLQLSSLTSEDTAVYYCNADGPPGFDYWGQGTTLTVSSGGGGSGGGGSGGGGSDVLMTQTPLTLSVTIGQPASISCKSSQSLLDSDGKTYLNWLLQRPGQSPKRLIYLVSKLDSGVPDRFTGSGSGTDFTLKISRVEAEDLGVYYCFQGSHVPFTFGSGTKLEIKR
# modifications: scFv inhibitor
# B5: scFv 11: NS3-inhibiting single-chain antibody, SEQ ID NO:10; MBP fusion SEQ ID NO:24 (protein)
# scFv: EVQLQQSGAELVKPGASVKLSCTASGFNIKDYYMHWVKQRPGQGLEYIGRIYPGNGQTDYNGKFKGKATLTADKSSSTAYMQLSSLTSVDSAVYFCARGLFAYWGQGTLVTVSSGGGGSGGGGSGGGGSDVVMTQTPLSLPVSFGDQVSISCRSSQSLANSYGNTYLSWCLHKPGQSPQLLIYGISNRFSGVPDRFSGSGSGTDFTLKISTIKPEDLGMYYCLQGTHQPLTFGAGTKLEIKR
# modifications: scFv inhibitor
# B6: scFv 148: NS3-inhibiting single-chain antibody, SEQ ID NO:7; MBP fusion SEQ ID NO:21 (protein)
# scFv: EIQLQQSGAELVKPGASVKLSCTASGFNIKDTFVHWVKQRPEQGLEWIGRIDPANGNTKYDPKFQGKATITAATSSNTAYLQLSSLTSEDTAVYYCATGLDYYAMDYWGQGTSVTVSSGGGGSGGGGSGGGGSDVVMTQTPLSPPVSLGDQASISCRSSQSLVHSNGNTYLHWYLQKPGQSPKLLIYKVSNRFSGVPDRFSGSGSGTDFTLKITRVEAEDLGLYFCSQSTHVPWTFGGGTKLEIKR
# modifications: scFv inhibitor
# Target: T1, MBP-scNS3 (Hepatitis C virus genotype 1b, UniProt P26663)
# T1 construct: made in house
# Test: ONPG hydrolysis (β-galactosidase) assay in genetic screening bacteria as indicator of NS3 activity
# Assay type: cell-based, Hepatitis C virus (HCV) genotype Ib
# Conditions: E. coli TG-I carrying pMGT14 and pMALc-NN-scFv; taken from FIG. 3A
# Method: (§1) NS3 catalysis inhibition assays. Blue colonies of E. coli TG-I cells carrying pMGT14 and pMALc-NN-scFv that were isolated by the genetic screening were grown in LB medium supplemented with 100 μg/ml ampicillin, 50 μg/ml kanamycin and induced with 0.2% (w/v) arabinose and 0.5 mM IPTG at O.D600nm=0.6 for 4 hr at 30° C. To measure the β-galactosidase activity an ONPG hydrolysis assay (Bach et al., 2001) was carried out. An in vitro fluorometric assay for the measurement of NS3 protease catalysis inhibition by the purified scFvs was carried out essentially as described (Berdichevsky et al., 2003) with the following modifications: the EFGP-NS5A/B-CBD substrate was immobilized onto cellulose prior to its exposure to enzyme and inhibitor. The reactions were carried out in 96 well plates in a volume of 100 μl containing 5 μM immobilized substrate, 100 nM MBP-5cNS3 and 2.4 or 1.2 μM of tested MBP-scFv.
row,Molecule,β-gal: β-galactosidase units
1,B1,67 β-galactosidase units
2,B2,84 β-galactosidase units
3,B3,44 β-galactosidase units
4,B4,48 β-galactosidase units
5,B5,60 β-galactosidase units
6,B6,72 β-galactosidase units

# System: HCV RNA replicons
# Test: Inhibition of HCV RNA replicon amplification, SEAP secretion from replicon-bearing Huh7 cells transfected with intrabodies
# Assay type: cell-based, HCV genotype Ib strain N
# Conditions: transiently transfected intrabodies
# Method: Cells and transfections. HCV genotype Ib strain N subgenomic replicon cell lines were obtained from Stanley Lemon and are described in (Bourne et al., 2005). En5-3 cells are a clonal cell line derived from Huh7 cells by stable transformation with the plasmid pLTR-SEAP. These cells were cultured in DMEM supplemented with 10% fetal calf serum, 2 μg/ml blasticidin (Invitrogen), penicillin, and streptomycin. Following transfection with Ntat2ANeo replicon RNAs, cells supporting replicon amplification were selected and maintained in the above media containing in addition 400 μg/ml G418 (geneticin). Cell lines were passaged once or twice per week. […] The culture medium was replaced every 24 h post transfection and the secreted alkaline phosphatase (SEAP) activity was measured in these fluids as described below, reflecting the daily production of SEAP by the cells.
# Alkaline phosphatase assay. […] The luminescent signal was read using a TD-20/20 Luminometer (Turner Designs, Inc.).
# For intracellular expression of the anti-NS3 protease single-chain antibodies in the cytoplasm of mammalian cells, the scFvs coding genes were subcloned as Ncol-Notl fragments, form plasmid pMALc-NN-scFv into the pCMV/myc/cyto-MBP vector (Shaki-Loewenstein et al, 2005). […] SEAP activity secreted from the cells was measured over successive 24-h intervals. […]
row,Molecule,inhibition of SEAP secretion (in words)
1,B1,most potent inhibitors

# Target: T2, scNS3 (Hepatitis C virus genotype 1b, UniProt P26663)
# T2 construct: a single-chain fusion linking the NS4A cofactor peptide to the N-terminus of the NS3 protease; inferred from the IMAC purification; made in house; host or cells: E. coli BL-21 (DE3) carrying pYB-43
# Test: Competition ELISA with myc-tagged tracer scFvs 171 and 35 on scNS3-coated plates
# Assay type: binding, Hepatitis C virus (HCV) genotype Ib
# Conditions: tracers scFv 171 and 35, myc tag
# Method: For competition ELISA the inventors replaced the C-terminal FLAG epitope of the scFvs that were used as tracers with a myc tag. Competing scFvs were added to scNS3-coated plates at varying concentrations and incubated at room temperature for 1 hr before adding the tracer scFvs. Binding of the tracers was monitored using a HRP-conjugated anti myc antibody (Sigma, Israel).
row,Molecule,competition with scFvs 171 and 35 for specific binding to scNS3
1,B1,could compete
2,B2,apparently did not
3,B3,could compete
4,B4,could compete
5,B5,could compete

# Target: T3, NS3 (Hepatitis C virus genotype 1b, UniProt P26663)
# T3 construct: made in house
# Test: Competitive in vitro fluorometric assay with epitope mimetic peptide
# Assay type: biochemical, Hepatitis C virus (HCV)
# Conditions: scFv 200 μg/ml, no peptide
# Source text: In order to confirm the prediction of scFv 35 and 171 shared epitope on NS3, the epitope was reconstituted on basis of the prediction. To that end, a short peptide segment of NS3 that was predicted to comprise the antibodies shared epitope was used to generate an epitope mimetic. […] As negative controls, a peptide 21 amino acids in length denoted peptide 6 (N′-[…]-C, SEQ ID NO: 111) and a peptide eight amino acids in length denoted peptide x (N′-[…]-C, SEQ ID NO: 112) were used. To test whether those peptides have any effect on NS3 catalytic activity a control in vitro assay was performed, in which the peptides and the NS3 enzyme were added alone without the inhibitor antibodies.
row,Molecule,"NS3 catalysis with scFv, without peptide"
1,B1,60%

# Same assay, conditions: scFv 200 μg/ml, peptide mimetic 50 μM
Molecule,NS3 catalysis with scFv in the presence of the epitope mimetic peptide,increase of NS3 catalytic activity on adding the peptide mimetic
B1,93%,more than 30%

# Target: T1, MBP-scNS3
# Test: In vitro fluorometric assay of NS3 protease catalysis inhibition
# Assay type: biochemical, Hepatitis C virus (HCV) genotype Ib
# Conditions: 100% minus % catalysis of FIG. 3B; 100 nM MBP-scNS3, 5 μM immobilized substrate, 2.4 or 1.2 μM MBP-scFv
# Method: as §1
row,Molecule,% inhibition
1,B1,88%
2,B2,62%
3,B3,46%
4,B4,62%
5,B5,52%
6,B6,58%
